For test [1], the target named is T1, LZTR1 R810W-FLAG (human, UniProt Q8N653 1-840).
T1 construct: Stably expressed in U87 cells by lentivirus; also called LZTR1-FLAG-R810W; LZTR1 RW; not shown: FLAG tag
T1 sequence (looked up): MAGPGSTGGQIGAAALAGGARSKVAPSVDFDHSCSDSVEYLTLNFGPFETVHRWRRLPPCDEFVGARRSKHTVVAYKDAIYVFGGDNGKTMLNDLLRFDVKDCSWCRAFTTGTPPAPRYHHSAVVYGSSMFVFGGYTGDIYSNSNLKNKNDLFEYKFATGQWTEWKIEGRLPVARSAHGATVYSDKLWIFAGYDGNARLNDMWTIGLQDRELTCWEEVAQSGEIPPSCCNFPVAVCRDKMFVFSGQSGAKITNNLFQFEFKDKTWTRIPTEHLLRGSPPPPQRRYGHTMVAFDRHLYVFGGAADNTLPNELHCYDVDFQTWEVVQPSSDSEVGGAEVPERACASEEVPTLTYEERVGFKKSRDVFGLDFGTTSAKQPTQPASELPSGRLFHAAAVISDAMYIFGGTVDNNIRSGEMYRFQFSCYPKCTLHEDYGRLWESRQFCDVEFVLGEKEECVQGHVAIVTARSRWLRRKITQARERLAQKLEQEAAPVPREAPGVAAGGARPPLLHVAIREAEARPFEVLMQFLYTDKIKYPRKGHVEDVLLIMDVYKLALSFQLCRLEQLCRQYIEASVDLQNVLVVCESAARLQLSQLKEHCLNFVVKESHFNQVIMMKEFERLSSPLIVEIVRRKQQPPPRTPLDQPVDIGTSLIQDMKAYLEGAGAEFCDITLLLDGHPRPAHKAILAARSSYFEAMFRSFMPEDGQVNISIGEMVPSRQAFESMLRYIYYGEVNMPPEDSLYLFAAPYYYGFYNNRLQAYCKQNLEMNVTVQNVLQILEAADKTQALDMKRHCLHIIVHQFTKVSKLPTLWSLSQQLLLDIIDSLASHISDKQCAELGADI
The test can be described thus: IP/MS, LZTR1 R810W-FLAG, U87. The essentials:
(§1)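 Extracted peptides in 3% acetonitrile/0.1% formic acid ran on a 50 cm C18 column into an Orbitrap Fusion, with MaxQuant identification and spectral counting.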

Test [2] concerns the target T2, LZTR1-FLAG (human, UniProt Q8N653 1-840).
T2 construct: Expressed in HEK 293T, HeLa or U87 cells; used as cell lysate; also called LZTR1 wild type-FLAG; LZTR1 WT; not shown: FLAG tag at the C-terminus
T2 sequence (looked up): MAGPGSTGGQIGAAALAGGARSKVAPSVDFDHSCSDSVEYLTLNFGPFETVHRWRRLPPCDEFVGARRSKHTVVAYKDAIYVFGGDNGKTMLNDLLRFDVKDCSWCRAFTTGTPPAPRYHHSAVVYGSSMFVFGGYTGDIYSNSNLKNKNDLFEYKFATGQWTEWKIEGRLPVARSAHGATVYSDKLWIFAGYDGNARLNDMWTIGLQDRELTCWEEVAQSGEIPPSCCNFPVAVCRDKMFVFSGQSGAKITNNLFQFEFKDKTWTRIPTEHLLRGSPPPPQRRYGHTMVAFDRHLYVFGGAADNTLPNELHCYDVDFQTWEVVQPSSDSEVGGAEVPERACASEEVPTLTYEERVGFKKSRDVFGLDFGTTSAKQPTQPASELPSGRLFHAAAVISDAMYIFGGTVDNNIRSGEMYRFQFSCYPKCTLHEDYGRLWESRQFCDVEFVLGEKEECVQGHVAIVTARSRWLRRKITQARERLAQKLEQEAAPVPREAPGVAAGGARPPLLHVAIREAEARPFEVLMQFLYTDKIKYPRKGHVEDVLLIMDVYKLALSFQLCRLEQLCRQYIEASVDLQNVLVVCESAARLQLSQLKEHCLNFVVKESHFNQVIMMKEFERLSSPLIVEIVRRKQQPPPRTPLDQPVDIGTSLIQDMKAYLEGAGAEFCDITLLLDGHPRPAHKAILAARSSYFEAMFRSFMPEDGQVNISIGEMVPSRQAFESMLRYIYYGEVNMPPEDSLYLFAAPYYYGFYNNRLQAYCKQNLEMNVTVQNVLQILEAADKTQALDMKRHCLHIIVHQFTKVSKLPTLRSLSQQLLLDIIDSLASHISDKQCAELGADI
The test can be described thus: IP/MS, LZTR1 wild type-FLAG, U87. A digest of the protocol:
as §1

B1: SMG9 (other, human, UniProt Q9H0W8 2-520, looked up)
chain: SESGHSQPGLYGIERRRRWKEPGSGGPQNLSGPGGRERDYIAPWERERRDASEETSTSVMQKTPIILSKPPAERSKQPPPPTAPAAPPAPAPLEKPIVLMKPREEGKGPVAVTGASTPEGTAPPPPAAPAPPKGEKEGQRPTQPVYQIQNRGMGTAAPAAMDPVVGQAKLLPPERMKHSIKLVDDQMNWCDSAIEYLLDQTDVLVVGVLGLQGTGKSMVMSLLSANTPEEDQRTYVFRAQSAEMKERGGNQTSGIDFFITQERIVFLDTQPILSPSILDHLINNDRKLPPEYNLPHTYVEMQSLQIAAFLFTVCHVVIVVQDWFTDLSLYRFLQTAEMVKPSTPSPSHESSSSSGSDEGTEYYPHLVFLQNKARREDFCPRKLRQMHLMIDQLMAHSHLRYKGTLSMLQCNVFPGLPPDFLDSEVNLFLVPFMDSEAESENPPRAGPGSSPLFSLLPGYRGHPSFQSLVSKLRSQVMSMARPQLSHTILTEKNWFHYAARIWDGVRKSSALAEYSRLLA
For B1, the binding result in test [1] and in test [2] was “binds” each time.

B2: TELO2 (other, human, UniProt Q9Y4R8 1-837, looked up)
chain: MEPAPSEVRLAVREAIHALSSSEDGGHIFCTLESLKRYLGEMEPPALPREKEEFASAHFSPVLRCLASRLSPAWLELLPHGRLEELWASFFLEGPADQAFLVLMETIEGAAGPSFRLMKMARLLARFLREGRLAVLMEAQCRQQTQPGFILLRETLLGKVVALPDHLGNRLQQENLAEFFPQNYFRLLGEEVVRVLQAVVDSLQGGLDSSVSFVSQVLGKACVHGRQQEILGVLVPRLAALTQGSYLHQRVCWRLVEQVPDRAMEAVLTGLVEAALGPEVLSRLLGNLVVKNKKAQFVMTQKLLFLQSRLTTPMLQSLLGHLAMDSQRRPLLLQVLKELLETWGSSSAIRHTPLPQQRHVSKAVLICLAQLGEPELRDSRDELLASMMAGVKCRLDSSLPPVRRLGMIVAEVVSARIHPEGPPLKFQYEEDELSLELLALASPQPAGDGASEAGTSLVPATAEPPAETPAEIVDGGVPQAQLAGSDSDLDSDDEFVPYDMSGDRELKSSKAPAYVRDCVEALTTSEDIERWEAALRALEGLVYRSPTATREVSVELAKVLLHLEEKTCVVGFAGLRQRALVAVTVTDPAPVADYLTSQFYALNYSLRQRMDILDVLTLAAQELSRPGCLGRTPQPGSPSPNTPCLPEAAVSQPGSAVASDWRVVVEERIRSKTQRLSKGGPRQGPAGSPSRFNSVAGHFFFPLLQRFDRPLVTFDLLGEDQLVLGRLAHTLGALMCLAVNTTVAVAMGKALLEFVWALRFHIDAYVRQGLLSAVSSVLLSLPAARLLEDLMDELLEARSWLADVAEKDPDEDCRTLALRALLLLQRLKNRLLPPASP
Take B2: the binding result in test [1] and in test [2] was “binds” each time.

B3: TBK1 (other, human, UniProt Q9UHD2 1-729, looked up)
chain: MQSTSNHLWLLSDILGQGATANVFRGRHKKTGDLFAIKVFNNISFLRPVDVQMREFEVLKKLNHKNIVKLFAIEEETTTRHKVLIMEFCPCGSLYTVLEEPSNAYGLPESEFLIVLRDVVGGMNHLRENGIVHRDIKPGNIMRVIGEDGQSVYKLTDFGAARELEDDEQFVSLYGTEEYLHPDMYERAVLRKDHQKKYGATVDLWSIGVTFYHAATGSLPFRPFEGPRRNKEVMYKIITGKPSGAISGVQKAENGPIDWSGDMPVSCSLSRGLQVLLTPVLANILEADQEKCWGFDQFFAETSDILHRMVIHVFSLQQMTAHKIYIHSYNTATIFHELVYKQTKIISSNQELIYEGRRLVLEPGRLAQHFPKTTEENPIFVVSREPLNTIGLIYEKISLPKVHPRYDLDGDASMAKAITGVVCYACRIASTLLLYQELMRKGIRWLIELIKDDYNETVHKKTEVVITLDFCIRNIEKTVKVYEKLMKINLEAAELGEISDIHTKLLRLSSSQGTIETSLQDIDSRLSPGGSLADAWAHQEGTHPKDRNVEKLQVLLNCMTEIYYQFKKDKAERRLAYNEEQIHKFDKQKLYYHATKAMTHFTDECVKKYEAFLNKSEEWIRKMLHLRKQLLSLTNQCFDIEEEVSKYQEYTNELQETLPQKMFTASSGIKHTMTPIYPSSNTLVEMTLGMKKLKEEMEGVVKELAENNHILERFGSLTMDGGLRNVDCL
As to B3, the binding result in test [1] and in test [2] was “binds” in each case.

B4: SMS (other, human, UniProt P52788 2-366, looked up)
chain: AAARHSTLDFMLGAKADGETILKGLQSIFQEQGMAESVHTWQDHGYLATYTNKNGSFANLRIYPHGLVLLDLQSYDGDAQGKEEIDSILNKVEERMKELSQDSTGRVKRLPPIVRGGAIDRYWPTADGRLVEYDIDEVVYDEDSPYQNIKILHSKQFGNILILSGDVNLAESDLAYTRAIMGSGKEDYTGKDVLILGGGDGGILCEIVKLKPKMVTMVEIDQMVIDGCKKYMRKTCGDVLDNLKGDCYQVLIEDCIPVLKRYAKEGREFDYVINDLTAVPISTSPEEDSTWEFLRLILDLSMKVLKQDGKYFTQGNCVNLTEALSLYEEQLGRLYCPVEFSKEIVCVPSYLELWVFYTVWKKAKP
Turning to B4, the binding result in test [1] and in test [2] was “binds” each time.

B5: SPRYD3 (other, human, UniProt Q8NCJ5 1-442, looked up)
chain: MRRTRRPRFVLMNKMDDLNLHYRFLNWRRRIREIREVRAFRYQERFKHILVDGDTLSYHGNSGEVGCYVASRPLTKDSNYFEVSIVDSGVRGTIAVGLVPQYYSLDHQPGWLPDSVAYHADDGKLYNGRAKGRQFGSKCNSGDRIGCGIEPVSFDVQTAQIFFTKNGKRVGSTIMPMSPDGLFPAVGMHSLGEEVRLHLNAELGREDDSVMMVDSYEDEWGRLHDVRVCGTLLEYLGKGKSIVDVGLAQARHPLSTRSHYFEVEIVDPGEKCYIALGLARKDYPKNRHPGWSRGSVAYHADDGKIFHGSGVGDPFGPRCYKGDIMGCGIMFPRDYILDSEGDSDDSCDTVILSPTARAVRNVRNVMYLHQEGEEEEEEEEEEEDGEEIEPEHEGRKVVVFFTRNGKIIGKKDAVVPSGGFFPTIGMLSCGEKVKVDLHPLSG
Regarding B5, the binding result in test [1] and in test [2] was “binds” in each case.

B6: SYDE1 (other, human, UniProt Q6ZW31 1-735, looked up)
chain: MAEPLLRKTFSRLRGREKLPRKKSDAKERGHPAQRPEPSPPEPEPQAPEGSQAGAEGPSSPEASRSPARGAYLQSLEPSSRRWVLGGAKPAEDTSLGPGVPGTGEPAGEIWYNPIPEEDPRPPAPEPPGPQPGSAESEGLAPQGAAPASPPTKASRTKSPGPARRLSIKMKKLPELRRRLSLRGPRAGRERERAAPAGSVISRYHLDSSVGGPGPAAGPGGTRSPRAGYLSDGDSPERPAGPPSPTSFRPYEVGPAARAPPAALWGRLSLHLYGLGGLRPAPGATPRDLCCLLQVDGEARARTGPLRGGPDFLRLDHTFHLELEAARLLRALVLAWDPGVRRHRPCAQGTVLLPTVFRGCQAQQLAVRLEPQGLLYAKLTLSEQQEAPATAEPRVFGLPLPLLVERERPPGQVPLIIQKCVGQIERRGLRVVGLYRLCGSAAVKKELRDAFERDSAAVCLSEDLYPDINVITGILKDYLRELPTPLITQPLYKVVLEAMARDPPNRVPPTTEGTRGLLSCLPDVERATLTLLLDHLRLVSSFHAYNRMTPQNLAVCFGPVLLPARQAPTRPRARSSGPGLASAVDFKHHIEVLHYLLQSWPDPRLPRQSPDVAPYLRPKRQPPLHLPLADPEVVTRPRGRGGPESPPSNRYAGDWSVCGRDFLPCGRDFLSGPDYDHVTGSDSEDEDEEVGEPRVTGDFEDDFDAPFNPHLNLKDFDALILDLERELSKQINVCL
Regarding B6, the binding result in test [1] and in test [2] was “binds” in each case.

The record behind these values is US20250262210A1 (TRUSTEES OF COLUMBIA UNIVERSITY IN THE CITY OF NEW YORK, published 2025).
